Assay results from article PMC3794996.

What was measured:
[1] = biological target: A/bat/Peru/10 H18 HA ectodomain (hemagglutinin of influenza virus A/flat-faced bat/Peru/033/2010, H18N11) (influenza A virus A/flat-faced bat/Peru/033/2010 (H18N11)); assay: crystal structure
[2] = biological target: A/bat/Peru/10 N11 NAL ectodomain (neuraminidase-like protein of influenza virus A/flat-faced bat/Peru/033/2010, H18N11) (influenza A virus A/flat-faced bat/Peru/033/2010 (H18N11)); assay: crystal structure
[3] = biological target: A/bat/Peru/10 N11 NAL protein with ectodomain plus stalk region (influenza A virus A/flat-faced bat/Peru/033/2010 (H18N11))

**Q.** For “A/bat/Peru/10 H18 HA ectodomain (hemagglutinin of influenza virus A/flat-faced bat/Peru/033/2010, H18N11) (domain or fragment)”, which stoichiometry N [1] is on record?
**A.** 3

**Q.** Which stoichiometry N [2] does the source give for “A/bat/Peru/10 N11 NAL ectodomain (neuraminidase-like protein of influenza virus A/flat-faced bat/Peru/033/2010, H18N11) (domain or fragment)” here?
**A.** 4

**Q.** For “A/bat/Peru/10 N11 NAL protein with ectodomain plus stalk region (domain or fragment)”, which stoichiometry N [3] is on record?
**A.** 4
